According to the array DNA melting data of Ke et al.:

Assay: melting temperature; melt of duplexes
Settings: sodium 0.0675 M; strand 1 µM

Row | Substance | Tm
1 | CGACGTGCAGCATGTGCTG+CAGCACATGTGGCACGTCG ((((((((..(((((((((+)))))))))..)))))))) | 55.5 °C
2 | CGACGTGCAGCATGTGCTG+CAGCACATGTTGCACGTCG (((((((((.(((((((((+))))))))).))))))))) | 58.7 °C
3 | CGACGTGCAGCATGTGCTG+CAGCACATTACGCACGTCG ((((((((...((((((((+))))))))...)))))))) | 45.1 °C
4 | CGACGTGCAGCATGTGCTG+CAGCACATTCAGCACGTCG ((((((((.(.((((((((+)))))))).).)))))))) | 47.8 °C
5 | CGACGTGCAGCATGTGCTG+CAGCACATTCTGCACGTCG ((((((((((.((((((((+)))))))).)))))))))) | 55 °C
6 | CGACGTGCAGCATGTGCTG+CAGCACATTGCGCACGTCG ((((((((...((((((((+))))))))...)))))))) | 52.5 °C
7 | CGACGTGCAGCATGTGCTG+CAGCACATTGGGCACGTCG ((((((((...((((((((+))))))))...)))))))) | 47.2 °C
8 | CGACGTGCAGCATGTGCTG+CAGCACATTGTGCACGTCG (((((((((..((((((((+))))))))..))))))))) | 44.8 °C
9 | CGACGTGCAGGATGTGCTG+CAGCACATAAAGCACGTCG ((((((((...((((((((+))))))))...)))))))) | 50.6 °C
10 | CGACGTGCAGGATGTGCTG+CAGCACATAAGGCACGTCG ((((((((...((((((((+))))))))...)))))))) | 50.8 °C
11 | CGACGTGCAGGATGTGCTG+CAGCACATACCGCACGTCG ((((((((.(.((((((((+)))))))).).)))))))) | 53.7 °C
12 | CGACGTGCAGGATGTGCTG+CAGCACATAGGGCACGTCG ((((((((...((((((((+))))))))...)))))))) | 50.3 °C
13 | CGACGTGCAGGATGTGCTG+CAGCACATATAGCACGTCG ((((((((...((((((((+))))))))...)))))))) | 50.6 °C
14 | CGACGTGCAGGATGTGCTG+CAGCACATATGGCACGTCG ((((((((...((((((((+))))))))...)))))))) | 51.3 °C
15 | CGACGTGCAGGATGTGCTG+CAGCACATCATGCACGTCG (((((((((.(((((((((+))))))))).))))))))) | 60.2 °C
16 | CGACGTGCAGGATGTGCTG+CAGCACATCCCGCACGTCG ((((((((.((((((((((+)))))))))).)))))))) | 59 °C
17 | CGACGTGCAGGATGTGCTG+CAGCACATCCTGCACGTCG (((((((((((((((((((+))))))))))))))))))) | 66 °C
18 | CGACGTGCAGGATGTGCTG+CAGCACATCGTGCACGTCG (((((((((.(((((((((+))))))))).))))))))) | 58.3 °C
19 | CGACGTGCAGGATGTGCTG+CAGCACATCTAGCACGTCG ((((((((..(((((((((+)))))))))..)))))))) | 56 °C
20 | CGACGTGCAGGATGTGCTG+CAGCACATGTAGCACGTCG ((((((((...((((((((+))))))))...)))))))) | 50.4 °C
21 | CGACGTGCAGGATGTGCTG+CAGCACATGTCGCACGTCG ((((((((...((((((((+))))))))...)))))))) | 51.4 °C
22 | CGACGTGCAGGATGTGCTG+CAGCACATTAAGCACGTCG ((((((((...((((((((+))))))))...)))))))) | 50.7 °C
23 | CGACGTGCAGGATGTGCTG+CAGCACATTCAGCACGTCG ((((((((.(.((((((((+)))))))).).)))))))) | 54.1 °C
24 | CGACGTGCAGGATGTGCTG+CAGCACATTCCGCACGTCG ((((((((.(.((((((((+)))))))).).)))))))) | 54.6 °C
25 | CGACGTGCAGGATGTGCTG+CAGCACATTGAGCACGTCG ((((((((...((((((((+))))))))...)))))))) | 50.6 °C
26 | CGACGTGCAGGATGTGCTG+CAGCACATTTCGCACGTCG ((((((((...((((((((+))))))))...)))))))) | 51.1 °C
27 | CGACGTGCAGTATGTGCTG+CAGCACATAAAGCACGTCG ((((((((..(((((((((+)))))))))..)))))))) | 51.7 °C
28 | CGACGTGCAGTATGTGCTG+CAGCACATAAGGCACGTCG ((((((((..(((((((((+)))))))))..)))))))) | 52.1 °C
